Measured values as given in US20210269549A1, “ANTI-SAS1B ANTIBODIES, ASSOCIATED METHODS OF USE, AND COMPOSITIONS AND METHODS FOR DETECTING AND TREATING CANCER” (UNIVERSITY OF VIRGINIA PATENT FOUNDATION, priority 2015, published 2021).

Assays:
[1] = tested on: human uterine cancer cells (MMMT539); test: Antibody drug conjugate cytotoxicity (ADC) assay, MMMT539; format: cell-based; settings: FIG. 3A-B
Protocol: The cytotoxic effect of anti-human SAS1B mAbs SB2 and SB5 on human uterine cancer cells (MMMT539) was examined by antibody drug conjugate cytotoxicity (ADC) assay. Human uterine cancer cells MMMT539 were seeded in triplicate on 96 well plate overnight and then treated with SB2 or SB5 and anti-mouse Fab-cleavable-Duocarmycin complex for ˜90 h. The presence of viable live cells per well was measured by total cellular ATP content in relative luminescence unit (RLU). Viability of control live cells (100%) was determined from average of 9 wells in terms of total cellular ATP (in RLU) containing the constant 15 nM Fab-CL-DMDM for each set of antibody/reagent. […] Staurosporine, a general protein kinase inhibitor, was used to induce apoptosis in 1% DMSO as a positive control for the assay.

[2] = target: T1, SAS1B extracellular domain (aa 164-431) polypeptide (Homo sapiens, UniProt Q6HA08); test: Western blot with mammalian cell-expressed recombinant SAS1B, extracellular domain; format: binding
T1 construct: SAS1B extracellular domain (aa 164-431) polypeptide; made in house
T1 sequence (Q6HA08 164-431): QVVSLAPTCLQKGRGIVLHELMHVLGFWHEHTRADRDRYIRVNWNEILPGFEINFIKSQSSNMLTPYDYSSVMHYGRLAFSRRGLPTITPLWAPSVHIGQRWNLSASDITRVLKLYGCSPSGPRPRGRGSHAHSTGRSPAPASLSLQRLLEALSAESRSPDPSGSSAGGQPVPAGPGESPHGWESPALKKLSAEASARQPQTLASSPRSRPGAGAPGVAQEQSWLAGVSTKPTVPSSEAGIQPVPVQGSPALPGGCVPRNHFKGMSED
Protocol: (§1) SAS1B monoclonal antibodies were analyzed with mammalian cell-expressed recombinant SAS1B by western blotting.

[3] = target: T2, human SAS1B protein with a C-terminal V5 tag expressed by HEK293T cells (Homo sapiens, UniProt Q6HA08); test: Double immunofluorescence on fixed and permeabilized HEK293T cells transfected with SAS1B SV-A with V5 tag; format: cell-based; settings: for IF signal / colocalization with V5-tag epitope signal: SV-A transfected HEK293T, PFA fixed, methanol permeabilized, mAbs at 10 ug/ml
T2 construct: expressed in transfected cells; host or cells: HEK293T
T2 sequence (Q6HA08 24-431): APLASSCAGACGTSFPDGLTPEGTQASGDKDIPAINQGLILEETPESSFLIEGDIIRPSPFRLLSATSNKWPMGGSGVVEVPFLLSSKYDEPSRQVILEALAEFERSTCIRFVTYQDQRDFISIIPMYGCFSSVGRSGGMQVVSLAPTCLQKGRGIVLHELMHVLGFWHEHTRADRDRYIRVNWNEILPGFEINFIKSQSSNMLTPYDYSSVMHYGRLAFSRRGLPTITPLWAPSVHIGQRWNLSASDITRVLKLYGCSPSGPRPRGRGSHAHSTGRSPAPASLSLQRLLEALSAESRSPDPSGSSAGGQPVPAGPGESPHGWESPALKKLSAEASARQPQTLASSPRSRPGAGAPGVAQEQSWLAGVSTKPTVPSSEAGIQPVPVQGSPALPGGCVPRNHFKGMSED
Protocol: Experiments were conducted to determine the specificity of anti-human SAS1B monoclonal antibodies SB1, SB2, SB3, SB4, SB5, SB6 and SB7 against the human SAS1B protein with a C-terminal V5 tag expressed by HEK293T cells by double immuno-fluorescence from two different SAS1B epitopes. HEK293T cells were seeded at ˜100,000 per well of a 24 well plate containing a lysine-coated 12 mm coverslip. 24 hours later, the cells were transfected with 1 ug of SV-A plasmid with 2 ul of TURBOFECT® transfection reagent followed by no change of media. 48 h later the cells were PFA (paraformaldehyde) fixed and methanol permeabilized for an IF study as follows.
The cells were removed from cell culture media and fixed in 4% PFA in PBS, 300 ul for 15 min. The cells were washed in 1 ml PBS in wells for 3 times and permeabilized in methanol (100%) for 15 min in 0.5 ml at RT. The cells were washed in PBS 1 ml for 3 times and blocked in complete culture media (DMEM) with 5% normal goat serum (NGS) for 30 min (i.e. BB, blocking buffer). The first antibody in BB was added for 1 h at 10 ug/ml for mouse monoclonal antibodies (SB1, SB2, SB3, SB4, SB5, SB6, SB7) and 5 ug/ml for anti-V5 DYLIGHT® 488 (green) rabbit (a rabbit polyclonal antibody to V5 tag). The cells were washed in PBS 3 times. The second antibody in BB (Goat anti-mouse Alexa Flour 594, red) was added for 1 h at 5 ug/ml (1:200 dilution). The cells were washed in PBS 3 times. The cells were mounted in slow fade DAPI 3 ul and stored at 4° C. before confocal imaging.

[4] = target: T3, human SAS1B (Homo sapiens, UniProt Q6HA08); test: Western blot of human SAS1B probed with anti-human SAS1B murine mAbs; format: binding; settings: for Specifically binds human SAS1B (and not mouse SAS1B): Table 1
T3 construct: made in house; host or cells: E. coli
T3 sequence (Q6HA08 24-431): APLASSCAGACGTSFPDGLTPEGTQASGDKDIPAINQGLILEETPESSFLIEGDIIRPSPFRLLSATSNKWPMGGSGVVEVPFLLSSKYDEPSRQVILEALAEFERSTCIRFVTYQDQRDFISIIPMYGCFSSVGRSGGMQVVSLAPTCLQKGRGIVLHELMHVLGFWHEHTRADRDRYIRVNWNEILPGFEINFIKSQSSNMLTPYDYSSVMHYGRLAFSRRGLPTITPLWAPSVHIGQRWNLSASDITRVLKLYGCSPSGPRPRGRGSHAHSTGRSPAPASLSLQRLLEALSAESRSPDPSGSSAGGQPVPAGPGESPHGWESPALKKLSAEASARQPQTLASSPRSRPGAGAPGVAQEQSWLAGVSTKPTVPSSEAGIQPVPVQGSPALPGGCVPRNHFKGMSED
Excerpt: A western blot of human SAS1B and mouse SAS1B was probed with anti-human SAS1B murine monoclonal antibodies SB1, SB2, SB3, SB4, SB5, SB6, and SB7.

[5] = target: T4, full-length SAS1B splice variant A polypeptide (Homo sapiens, UniProt Q6HA08); test: Western blot with mammalian cell-expressed recombinant SAS1B, full length; format: binding
T4 construct: made in house
T4 sequence (Q6HA08 24-431): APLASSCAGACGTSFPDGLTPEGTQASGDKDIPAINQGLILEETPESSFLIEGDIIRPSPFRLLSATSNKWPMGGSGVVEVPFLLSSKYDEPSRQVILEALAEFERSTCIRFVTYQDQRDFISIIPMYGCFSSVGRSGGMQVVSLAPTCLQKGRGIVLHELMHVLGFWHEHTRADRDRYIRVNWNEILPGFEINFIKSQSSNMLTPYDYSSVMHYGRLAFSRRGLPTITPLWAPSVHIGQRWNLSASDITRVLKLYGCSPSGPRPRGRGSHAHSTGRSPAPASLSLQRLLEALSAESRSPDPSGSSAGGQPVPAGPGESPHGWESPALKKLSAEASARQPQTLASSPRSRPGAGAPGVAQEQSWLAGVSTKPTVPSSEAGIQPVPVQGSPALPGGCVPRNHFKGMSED
Protocol: as §1

## CN[C@@H]1C[C@H]2O[C@@](C)([C@@H]1OC)n1c3ccccc3c3c4c(c5c6ccccc6n2c5c31)C(=O)NC4 [Staurosporine, reference compound]
[1]
  Cell killing: killed the cancer cells in a dose dependent manner

B1: SB6: mouse anti-human SAS1B monoclonal antibody, IgG2b; VH SEQ ID NO:16, VL SEQ ID NO:18 (antibody, listed as Mus musculus, V domains shown)
VH: EVQLQQSGPELVKPGSSVKISCKPSGYTFTDYNMVWMKQSHGKSLEWIGAINPNNGGTTYNQKFKGKATLTVDKSSSTAYMELRSLTSEDSAVYYCAPNWDWFAYWGQGTLVTVSA
VL: DVLMTQIPLSLPVSLGDQASISCRSSQSILHSNGNTYLEWYLQKPGQSPKLLIYKVSNRFSGVPDRFSGSGSGTDFTLKISRVEAEDLGVYYCFQGSHVPFTFGSGTKLEIK
[2]
  Reaction with SAS1B extracellular domain (aa 164-431) polypeptide: none of the them reacted
[3]
  IF signal / colocalization with V5-tag epitope signal: colocalize (merge) with V5-tag epitope signal
  Signal on mock transfected HEK293T cells: no V5 signal or SAS1B signal
[4]
  Reactivity on western blot of human SAS1B and mouse SAS1B: specific to the human SAS1B only
  Specificity in western blot for human SAS1B antigen in an E. coli protein background: demonstrated specificity
  Specifically binds human SAS1B (and not mouse SAS1B): Yes
[5]
  Reaction with full-length SAS1B splice variant A polypeptide: reacted with the full-length SAS1B splice variant A polypeptide

B2: SB7: mouse anti-human SAS1B monoclonal antibody, IgG2b; VH SEQ ID NO:16, VL SEQ ID NO:18 (antibody, listed as Mus musculus, V domains shown)
VH: EVQLQQSGPELVKPGSSVKISCKPSGYTFTDYNMVWMKQSHGKSLEWIGAINPNNGGTTYNQKFKGKATLTVDKSSSTAYMELRSLTSEDSAVYYCAPNWDWFAYWGQGTLVTVSA
VL: DVLMTQIPLSLPVSLGDQASISCRSSQSILHSNGNTYLEWYLQKPGQSPKLLIYKVSNRFSGVPDRFSGSGSGTDFTLKISRVEAEDLGVYYCFQGSHVPFTFGSGTKLEIK
[2]
  Reaction with SAS1B extracellular domain (aa 164-431) polypeptide: none of the them reacted
[3]
  IF signal / colocalization with V5-tag epitope signal: colocalize (merge) with V5-tag epitope signal
  Signal on mock transfected HEK293T cells: no V5 signal or SAS1B signal
[4]
  Reactivity on western blot of human SAS1B and mouse SAS1B: specific to the human SAS1B only
  Specificity in western blot for human SAS1B antigen in an E. coli protein background: demonstrated specificity
  Specifically binds human SAS1B (and not mouse SAS1B): Yes
[5]
  Reaction with full-length SAS1B splice variant A polypeptide: reacted with the full-length SAS1B splice variant A polypeptide
